Legend:
FAS [1] = target: T1, FAS (Mus musculus, UniProt P19096); assay: FAS enzyme activity of treated 3T3-L1 adipocytes; type: cell-based; design: endogenous in cells; host or cells: 3T3-L1 adipocytes (treated cells, then lysed); settings: 3T3-L1 adipocytes, rAIM 5 μg/ml, 6 days
Procedure: (§1) The influence of AIM on FAS activity of adipocyte or adipose tissue was examined. FAS activity was measured by the method of Kelley (Kelley et al., Biochem. J., 1986, 235:87-90) with slight modification. 3T3-L1 adipocytes, or lysates of adipose tissue of obese mice was mixed with acetyl-CoA and NADPH (0.2 M […] phosphate buffer [pH 7.0] containing 0.4 mM EDTA), and the mixture was placed in a spectrophotometer cuvette and maintained at 30° C. 20 μl of malonyl-CoA solution (0.2 mM) was added to start an enzyme reaction and decrease of OD was measured at a chart speed 2 cm/min. Based on the results, the enzyme activity of FAS was evaluated using the molar extinction coefficient of […] NADPH as 6220.
(§2) First, the FAS activity of 3T3-L1 cells treated for 6 days in the presence or absence of rAIM (5 μg/ml), and in the presence of C75 (25 μM) was measured. Moreover, the FAS activity of adipose tissues of AIM^+/+ mice and AIM^−/− mice and the FAS activity of adipose tissue of AIM^−/− mice administered with rAIM or BSA 3 hr before by intraadipose topical injection are shown in FIGS. 28 and 29, respectively.
(§3) All mice were fed with HFD for 20 weeks. The samples were dissolved (lysed) and the FAS activity was measured. The data was converted to that based on FAS protein, according to the results of WB performed using the same sample.

FAS [2] = target: T1, FAS; assay: Co-immunoprecipitation of AIM-HA and FLAG-FAS or FAS domains in HEK 293T cells; type: binding; design: expressed in transfected cells; host or cells: HEK 293T cells co-expressing AIM-HA; settings: HEK 293T cells co-expressing HA-tag rAIM and FLAG-tag FAS
From the text: In HEK 293T cells, rAIM labeled with HA-tag and FAS labeled with FLAG-tag were co-expressed, and the binding of AIM and FAS was confirmed by co-immunoprecipitation using an anti-Flag antibody or anti-HA antibody.
Then, the AIM binding region in FAS was examined. FAS contains 8 domains of keto acyl synthase (KS), malonyl/acetyl transferase (MAT), dehydrase (DH), central core (CC), enoylreductase (ER), keto reductase (KR), acylcarrier protein (ACP) and thioesterase (TE).
The N-terminal of each domain of FAS was labeled with Flag sequence, and expressed in HEK293T cells where AIM-HA is stably expressed. The binding of AIM-HA and each domain of FAS was confirmed by co-immunoprecipitation using an anti-Flag antibody or anti-HA antibody.
The sequence encoding full-length FAS cDNA (nucleotide: +1-7515) labeled with FLAG-tag was constructed using a part of the cDNA clone provided by Dr. Ohara (Kazusa DNA Research Institute) and some fragments cloned by RT-PCR and pFLAG-CMV2 vector (Sigma).
A cDNA fragment encoding KS, MAT, DH, CC, ER, KR, ACP or TE was prepared by subcloning to pFLAG-CMV2 vector by using full-length FAS cDNA as a template.

3T3-L1 adipocytes = assay: Glycerol and free fatty acid released in culture supernatant; type: cell-based, mouse; settings: rAIM 5 μg/ml, day 2, day 4, day 6
Procedure: rAIM was loaded (5 μg/ml) on 3T3-L1 adipocytes, the amount of glycerol or free fatty acid released in the culture supernatant was measured on day 2, day 4, and day 6. After rAIM loading, the cells were washed twice with PBS, and incubated in a serum-free medium (FreeStyle™ 293 Expression Medium; Invitrogen) for 5 hr. The buffer was recovered, and the measurement was performed using a glycerol assay kit and a fatty acid assay kit (both Bio Vision Inc.) and according to the manual.

3T3-L1 cells = assay: Expression of adipocyte markers by quantitative real-time PCR; type: cell-based, mouse; settings: day 12
Procedure: The cells cultured in schedules A-D shown in FIG. 13 were recovered on day 10 from the start of the differentiation induction stimulation (day 12), and expression of adipocyte markers (C/EBPα, PPARγ1, PPARγ2, CD36, Glut4) at mRNA level was measured using 7500 Fast Real-Time PCR system (Invitrogen; CA, USA) by ΔΔCT method.

AIM knockout mice = assay: Macrophage infiltration into adipose tissue after systemic rAIM administration; type: in vivo, mouse; settings: intravenous injection 50 μg/body/injection, 3 weeks
Procedure: Then, rAIM was systemically administered to the AIM knockout mice by intravenous injection (50 μg/body/injection). After the administration was continued for 3 weeks, a section produced from the visceral fat tissue was stained with an anti-macrophage monoclonal antibody (F4/80).

FAS [3] = target: T1, FAS; assay: Co-immunoprecipitation of rAIM-HA and endogenous FAS in adipose tissue; type: binding; design: endogenous; settings: adipose tissue of AIM-/- mice, 100 μg injected, 3 hr
Procedure: rAIM labeled with HA-tag was directly injected to adipose tissue of AIM^−/− mice (at several points, 100 μg in total). After 3 hr, to confirm binding of rAIM-HA and endogenous FAS, co-immunoprecipitation by anti-HA antibody was performed using adipose tissue. The presence of FAS in the precipitate was analyzed by Western blotting (WB).

FAS [4] = target: T1, FAS; assay: FAS activity of adipose tissue of AIM-/- mice after intraadipose topical injection; type: in vivo; design: endogenous in cells; host or cells: 3T3-L1 adipocytes (treated cells, then lysed); settings: AIM-/- mice fed HFD 20 weeks, rAIM injected into adipose 3 hr before, versus BSA
Procedure: as §1, §2, §3

T1 sequence (P19096 whole entry): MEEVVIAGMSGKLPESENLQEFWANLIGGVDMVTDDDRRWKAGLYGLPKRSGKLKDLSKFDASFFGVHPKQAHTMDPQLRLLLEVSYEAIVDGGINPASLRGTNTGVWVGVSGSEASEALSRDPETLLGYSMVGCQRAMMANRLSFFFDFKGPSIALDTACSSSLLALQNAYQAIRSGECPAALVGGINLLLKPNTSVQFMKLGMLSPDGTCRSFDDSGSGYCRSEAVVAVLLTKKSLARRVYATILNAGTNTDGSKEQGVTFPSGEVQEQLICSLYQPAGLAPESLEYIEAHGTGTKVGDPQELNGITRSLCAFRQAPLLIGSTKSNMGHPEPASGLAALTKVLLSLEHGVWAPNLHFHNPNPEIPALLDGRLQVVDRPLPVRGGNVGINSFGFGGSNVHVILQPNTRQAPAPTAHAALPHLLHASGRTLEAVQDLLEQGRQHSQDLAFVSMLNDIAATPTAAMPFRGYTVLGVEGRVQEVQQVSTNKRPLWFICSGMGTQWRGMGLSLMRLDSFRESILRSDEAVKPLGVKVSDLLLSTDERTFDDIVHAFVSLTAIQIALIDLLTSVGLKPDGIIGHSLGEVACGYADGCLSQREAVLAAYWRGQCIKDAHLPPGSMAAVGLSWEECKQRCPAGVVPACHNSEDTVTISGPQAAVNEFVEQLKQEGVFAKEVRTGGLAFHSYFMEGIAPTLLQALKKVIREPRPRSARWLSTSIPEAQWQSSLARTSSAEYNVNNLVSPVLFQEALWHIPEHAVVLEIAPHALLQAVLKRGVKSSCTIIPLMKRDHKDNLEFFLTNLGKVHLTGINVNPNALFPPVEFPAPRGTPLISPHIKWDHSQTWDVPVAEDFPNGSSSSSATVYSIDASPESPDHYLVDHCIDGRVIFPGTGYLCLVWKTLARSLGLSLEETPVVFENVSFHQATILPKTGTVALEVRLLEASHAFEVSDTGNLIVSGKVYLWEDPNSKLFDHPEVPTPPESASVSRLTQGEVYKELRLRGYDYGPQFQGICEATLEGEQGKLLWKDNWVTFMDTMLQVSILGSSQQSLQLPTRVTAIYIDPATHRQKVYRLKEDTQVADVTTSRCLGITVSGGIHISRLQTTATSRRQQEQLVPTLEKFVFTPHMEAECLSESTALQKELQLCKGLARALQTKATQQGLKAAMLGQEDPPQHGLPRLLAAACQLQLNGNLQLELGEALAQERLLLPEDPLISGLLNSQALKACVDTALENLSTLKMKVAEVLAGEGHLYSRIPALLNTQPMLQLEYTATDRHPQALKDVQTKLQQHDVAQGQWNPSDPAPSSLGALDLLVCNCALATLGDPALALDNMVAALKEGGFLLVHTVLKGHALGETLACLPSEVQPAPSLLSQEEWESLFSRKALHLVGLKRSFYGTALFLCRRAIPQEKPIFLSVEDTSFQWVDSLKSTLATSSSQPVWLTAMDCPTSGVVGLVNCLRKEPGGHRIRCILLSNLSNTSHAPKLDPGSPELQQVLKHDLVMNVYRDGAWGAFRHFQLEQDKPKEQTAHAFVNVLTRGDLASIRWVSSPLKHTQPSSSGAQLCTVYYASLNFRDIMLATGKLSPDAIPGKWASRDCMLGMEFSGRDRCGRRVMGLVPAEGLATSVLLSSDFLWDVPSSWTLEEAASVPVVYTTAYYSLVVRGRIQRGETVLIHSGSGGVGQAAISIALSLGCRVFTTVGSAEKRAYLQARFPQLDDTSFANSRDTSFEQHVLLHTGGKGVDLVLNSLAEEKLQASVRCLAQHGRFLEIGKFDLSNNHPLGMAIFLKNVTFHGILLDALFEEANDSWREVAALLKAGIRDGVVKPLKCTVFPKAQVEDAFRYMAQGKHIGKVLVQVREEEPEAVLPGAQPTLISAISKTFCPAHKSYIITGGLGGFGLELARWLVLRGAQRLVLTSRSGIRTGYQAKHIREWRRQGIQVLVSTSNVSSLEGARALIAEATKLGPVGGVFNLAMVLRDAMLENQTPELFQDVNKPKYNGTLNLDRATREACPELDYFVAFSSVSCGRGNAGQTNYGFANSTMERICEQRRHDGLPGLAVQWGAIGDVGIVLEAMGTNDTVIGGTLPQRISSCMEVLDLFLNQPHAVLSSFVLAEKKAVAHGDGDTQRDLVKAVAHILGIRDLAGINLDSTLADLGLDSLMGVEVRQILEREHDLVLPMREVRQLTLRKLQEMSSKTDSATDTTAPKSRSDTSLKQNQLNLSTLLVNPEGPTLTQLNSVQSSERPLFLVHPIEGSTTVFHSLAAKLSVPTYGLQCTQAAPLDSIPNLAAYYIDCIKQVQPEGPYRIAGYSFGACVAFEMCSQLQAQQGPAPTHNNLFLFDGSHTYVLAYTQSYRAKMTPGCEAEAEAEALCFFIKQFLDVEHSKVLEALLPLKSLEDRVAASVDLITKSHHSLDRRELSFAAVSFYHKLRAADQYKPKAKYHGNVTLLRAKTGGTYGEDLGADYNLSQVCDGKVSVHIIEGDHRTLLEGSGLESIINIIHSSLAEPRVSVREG

B1: rAIM: recombinant AIM protein (rAIM) of mouse, HA-tagged, prepared in HEK293T cells (protein)
chain: ESPTKVQLVGGAHRCEGRVEVEHNGQWGTVCDDGWDRRDVAVVCRELNCGAVIQTPRGASYQPPASEQRVLIQGVDCNGTEDTLAQCELNYYVFDCSHEEDAGAQCENPDSDLLFIPEDVRLVDGPGHCQGRVEVLHQSQWSTVCKAGWNLQVSKVVCRQLGCGRALLTYGSCNKNTQGKGPIWMGKMSCSGQEANLRSCLLSRLENNCTHGEDTWMECEDPFELKLVGGDTPCSGRLEVLHKGSWGSVCDDNWGEKEDQVVCKQLGCGKSLHPSPKTRKIYGPGAGRIWLDDVNCSGKEQSLEFCRHRLWGYHDCTHKEDVEVICTDFDV
modifications: left off: small tags and cut ends
notes: recombinant AIM protein (rAIM) of mouse, HA-tagged, prepared in HEK293T cells
- FAS activity (FAS [1]): markedly suppressed
- binding of AIM and FAS (co-immunoprecipitation) (FAS [2]): coprecipitated
- amount of free fatty acids in the culture supernatant (3T3-L1 adipocytes): significantly increased
- amount of glycerol in the culture supernatant (3T3-L1 adipocytes): significantly increased
- expression of adipocyte markers (C/EBPα, PPARγ1, PPARγ2, CD36, Glut4) mRNA (3T3-L1 cells; schedule B): suppressed
- expression of adipocyte markers (C/EBPα, PPARγ1, PPARγ2, CD36, Glut4) mRNA (3T3-L1 cells; schedule D as printed, AIM administered simultaneously with differentiation induction stimulation): suppressed
- expression of adipocyte markers (C/EBPα, PPARγ1, PPARγ2, CD36, Glut4) mRNA (3T3-L1 cells; schedule D, AIM only before differentiation induction): expressed
- infiltration of macrophages into adipose tissue (F4/80 staining of visceral fat section) (AIM knockout mice): infiltration of macrophages into adipose tissue
- binding of rAIM-HA and endogenous FAS (co-immunoprecipitation, Western blotting) (FAS [3]): coprecipitated
- FAS activity in adipose tissue (FAS [4]): decreased

— patent US20130115220A1, “METHOD FOR PREVENTION OR TREATMENT OF METABOLIC SYNDROME” (DAINIPPON SUMITOMO PHARMA CO., LTD., priority 2010, published 2013)
